# Earlier results as cited in paper PMC4327442.
# Molecular target: IL-18 (Homo sapiens) (UniProt Q14116)
# Sequence (Q14116 37-193): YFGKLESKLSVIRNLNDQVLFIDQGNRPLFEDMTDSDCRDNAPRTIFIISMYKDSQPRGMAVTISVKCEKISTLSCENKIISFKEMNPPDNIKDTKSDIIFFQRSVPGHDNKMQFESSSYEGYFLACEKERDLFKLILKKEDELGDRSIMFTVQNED
# Sequence of IL-18BP (O95998 31-194): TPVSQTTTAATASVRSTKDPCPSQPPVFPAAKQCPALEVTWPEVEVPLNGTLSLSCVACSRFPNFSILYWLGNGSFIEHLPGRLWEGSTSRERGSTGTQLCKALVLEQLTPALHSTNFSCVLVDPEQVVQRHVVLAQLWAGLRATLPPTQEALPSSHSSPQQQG
substance,measurement,value
IL-18BP (from UniProt O95998),Kd,399 pM
